# Assay results reported in IntAct's records for PubMed 23353789.
# B1: Chromosome partition protein Smc (Bacillus subtilis), P51834 (parent)
# chain: MFLKRLDVIGFKSFAERISVDFVKGVTAVVGPNGSGKSNITDAIRWVLGEQSARSLRGGKMEDIIFAGSDSRKRLNLAEVTLTLDNDDHFLPIDFHEVSVTRRVYRSGESEFLINNQPCRLKDIIDLFMDSGLGKEAFSIISQGKVEEILSSKAEDRRSIFEEAAGVLKYKTRKKKAENKLFETQDNLNRVEDILHELEGQVEPLKIQASIAKDYLEKKKELEHVEIALTAYDIEELHGKWSTLKEKVQMAKEEELAESSAISAKEAKIEDTRDKIQALDESVDELQQVLLVTSEELEKLEGRKEVLKERKKNAVQNQEQLEEAIVQFQQKETVLKEELSKQEAVFETLQAEVKQLRAQVKEKQQALSLHNENVEEKIEQLKSDYFELLNSQASIRNELQLLDDQMSQSAVTLQRLADNNEKHLQERHDISARKAACETEFARIEQEIHSQVGAYRDMQTKYEQKKRQYEKNESALYQAYQYVQQARSKKDMLETMQGDFSGFYQGVKEVLKAKERLGGIRGAVLELISTEQKYETAIEIALGASAQHVVTDDEQSARKAIQYLKQNSFGRATFLPLSVIRDRQLQSRDAETAARHSSFLGVASELVTFDPAYRSVIQNLLGTVLITEDLKGANELAKLLGHRYRIVTLEGDVVNPGGSMTGGAVKKKNNSLLGRSRELEDVTKRLAEMEEKTALLEQEVKTLKHSIQDMEKKLADLRETGEGLRLKQQDVKGQLYELQVAEKNINTHLELYDQEKSALSESDEERKVRKRKLEEELSAVSEKMKQLEEDIDRLTKQKQTQSSTKESLSNELTELKIAAAKKEQACKGEEDNLARLKKELTETELALKEAKEDLSFLTSEMSSSTSGEEKLEEAAKHKLNDKTKTIELIALRRDQRIKLQHGLDTYERELKEMKRLYKQKTTLLKDEEVKLGRMEVELDNLLQYLREEYSLSFEGAKEKYQLETDPEEARKRVKLIKLAIEELGTVNLGSIDEFERVNERYKFLSEQKEDLTEAKNTLFQVIEEMDEEMTKRFNDTFVQIRSHFDQVFRSLFGGGRAELRLTDPNDLLHSGVEIIAQPPGKKLQNLNLLSGGERALTAIALLFSILKVRPVPFCVLDEVEAALDEANVFRFAQYLKKYSSDTQFIVITHRKGTMEEADVLYGVTMQESGVSKVISVKLEETKEFVQ
# partner: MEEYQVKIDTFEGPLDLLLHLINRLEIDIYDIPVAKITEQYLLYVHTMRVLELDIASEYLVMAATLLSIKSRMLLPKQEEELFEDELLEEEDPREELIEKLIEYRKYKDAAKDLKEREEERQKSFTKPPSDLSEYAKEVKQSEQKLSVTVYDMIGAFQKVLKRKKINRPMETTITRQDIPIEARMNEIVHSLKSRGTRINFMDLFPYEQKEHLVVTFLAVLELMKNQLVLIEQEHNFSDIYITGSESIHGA
# B2: Segregation and condensation protein A (Bacillus subtilis), P35154 (parent)
# chain: B1 partner
# partner: B1 chain
# Variants of: B1
# Details: with scpa_bacsu scpA
row,effect of a mutation on the interaction,Variant
1,disrupting interaction strength,V1176E
2,disrupting interaction strength,I1174E

# Variants of: B1
# Details: with scpa_bacsu scpA
# Remark: another data set of the same source
row,effect of a mutation on the interaction,Variant
1,disrupting interaction strength,V1021E
2,decreasing interaction strength,Y170E

# Variants of: B2
# Details: with smc_bacsu smc
row,effect of a mutation on the interaction,Variant
1,disrupting interaction strength,L60K
2,disrupting interaction strength,L67E
3,disrupting interaction strength,K70E
